Data on one substance can be found in patent US20040146964.

The data set has as its system T1, C. elegans HIF-α homologue, wild type.
T1 sequence: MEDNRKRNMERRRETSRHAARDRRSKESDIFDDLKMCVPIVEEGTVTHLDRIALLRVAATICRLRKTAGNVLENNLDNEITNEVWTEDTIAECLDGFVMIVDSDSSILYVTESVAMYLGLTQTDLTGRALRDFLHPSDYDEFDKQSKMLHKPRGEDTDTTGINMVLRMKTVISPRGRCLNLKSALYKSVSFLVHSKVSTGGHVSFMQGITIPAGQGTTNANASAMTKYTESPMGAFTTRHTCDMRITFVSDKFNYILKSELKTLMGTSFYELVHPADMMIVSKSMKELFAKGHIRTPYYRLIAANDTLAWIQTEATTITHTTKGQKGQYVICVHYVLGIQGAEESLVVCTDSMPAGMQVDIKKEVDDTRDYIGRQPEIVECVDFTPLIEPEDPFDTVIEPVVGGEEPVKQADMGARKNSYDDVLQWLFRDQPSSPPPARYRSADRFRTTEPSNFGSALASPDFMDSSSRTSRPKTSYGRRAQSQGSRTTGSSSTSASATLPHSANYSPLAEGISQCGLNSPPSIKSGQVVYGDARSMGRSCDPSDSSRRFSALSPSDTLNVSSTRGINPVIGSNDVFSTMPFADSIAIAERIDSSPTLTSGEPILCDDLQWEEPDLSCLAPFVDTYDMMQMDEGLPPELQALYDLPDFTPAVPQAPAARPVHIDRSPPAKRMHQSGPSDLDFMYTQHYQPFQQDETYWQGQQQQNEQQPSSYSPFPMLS

Regarding “gene product of the predicted ORF T20B3.7”, the “modification of HIF-1 read by HA.VHL-1 capture” value is on record as “had no activity in these assays”.
